Laboratory results from the supplement of paper PMC12042874.
± gives the uncertainty stated by the source.

Assay: amyloid nucleation score (Sup35N fusion, yeast selection) (log enrichment); library NNK3; higher = more nucleation; inactive = no reads after selection
How it was run: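 In psi-negative yeast, Sup35N fusions carrying peptides of 20 random codons were induced with 100 μM copper sulfate for 24 hours. The cells then grew 7 days at 30°C on medium lacking adenine and uracil, and plasmid inserts from input and output were Illumina-sequenced, excluding sequences with under 100 input reads. Nucleation score is the DiMSum log enrichment of output over input reads, centred on the mode score of non-aggregating sequences.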

Amyloid nucleation score, 0.586 ± 0.21:
AIINSVREPWAPAMAHTNNA

Amyloid nucleation score, 1.06 ± 0.12:
ALYRSGLNFVIRVGTLLMIW

Amyloid nucleation score, 0.355 ± 0.29:
ASLMERSIMYFVLVNNPRSE

Amyloid nucleation score, -0.804 ± 1.8:
AKWMAFSSSSFRSCFFSFKQ

Amyloid nucleation score, 1.26 ± 0.12:
CFPCLWP

Amyloid nucleation score, 0.737 ± 0.16:
CGLQLQCMVEVLVVCPEQLL

Amyloid nucleation score, 0.235 ± 0.19:
AIEKGHK

Amyloid nucleation score, -0.206 ± 1.5:
AEASNGACLRLCWLVLVWMD

Amyloid nucleation score, 2.36 ± 0.074:
AVEEHLIHLSCCVQAVNRRV

Amyloid nucleation score, -0.082 ± 0.88:
AVGKM

Amyloid nucleation score, 2.04 ± 0.089:
AFVFATAITELVYCSCLNRP

Amyloid nucleation score, 1.07 ± 0.12:
CFDFSCVFLKEMQYGGETGS

Amyloid nucleation score, 2.89 ± 0.069:
ALAMTFVNIDKSFFFNVYSM

Amyloid nucleation score, 1.01 ± 0.09:
ALCANYCFAMFSDSGLRWTV

Amyloid nucleation score, -0.025 ± 0.88:
APRGVSTDLDAVHRWYYSGR

Amyloid nucleation score, -0.765 ± 1.5:
ANRYNSITE

Amyloid nucleation score, 1.17 ± 0.19:
AGFAMYFGFVGYNFSFPWG

Amyloid nucleation score, 1.78 ± 0.098:
CFASTRSGVILNYTMVVVDF

Amyloid nucleation score, 3.14 ± 0.053:
CCIMQPCSVVVYQWSQNRSR

Amyloid nucleation score, -0.669 ± 0.55:
CIVLTVKCSLA

Amyloid nucleation score, 0.723 ± 0.25:
AGPVPIT

Amyloid nucleation score, 0.018 ± 1:
ARSIFARLQYSHLSSRGEVI

Amyloid nucleation score, 1.12 ± 0.12:
AFYLMLVS

Amyloid nucleation score, inactive:
AANVESPKIYKWCINKRGMV
AASPQARGCILSCNVSRNQT
AASRMLWPGWNIRPSDAVVE
ACAATYLIADAFYELSGIGL
ACFWLIDVTKWLTCYRRSSN
ACIVARARSSVVTCF
ACSLSWCHTGCY
ACSNWMRLMLVWNSTRNRVV
ADFKKVSSLLRSTGLVGGFR
ADKRFI
AEALCQFIYCFAASKLTGVC
AFISSKARTYKIRMMPVPTS
AFLSLCKLDYSYANCLVIVV
AFSIYHRIIIMRFRKYNIFA
AFVKFSRTWSSVSSLCGFQA
AGCAIALLYGWESLRAVFL
AGGLSGDNWRRIDG
AGSDHVLRDRHYVVMPQEFL
AGSILYGHYLDACGRHSRVI
AGTTEWRG
AGWIDAYRFYNELLLGLRDH
AHRRKLKWDNGHCNLRTKFR
AIGMMASRWNLWCITLFLLK
AIRKL
AITVGLSGARRD
AIYVFIRLLYVNIHDTTPVR
AKCFFPGVNLMVGSQLFWLR
AKFARYSTYLPLLSVHDIND
AKWVLDFVKDRLPFRFCMLV
ALCKCALG
ALFAGLIECQCDNILGPETG
ALFYHFL
ALLESFIKKRSMFLNVNGGF
ALMCIHRLCPNIVPDQ
ALPREPESVLG
ALRQRNDCEPYIVRTFWVET
ALRRVMVICLFKLDSEAHST
ALSLYLISLWYGYSWYLRFD
ALSRMGEFEDYCLTMGKKVF
ALWLPITVDWMLESGCGGCY
AMCCF
AMFTRSRVSITLCGRWAYCS
AMIMSFFWRKVT
AMKSAW
AMSTGSSTWWYRSSKAIRGS
ANIFGVNTFGESRKHSIARC
ANLSRSSTLLSGVWSEV
ANSTNKQC
ANVLFEVSACLAKGIVKVRR
APRLFKQIIVTQTDGSLEGE
APSNGRE
APTRSV
AQRVMD
AQYLLYINDPCTCVVATPCR
AREYDWQDYILVSVMYTLVW
AREYMI
ARMLRYRHIAS
ARSNRCSM
ASDKMELILLLTSYRSYYDC
ASGFLYSSSHLERNKLVNKF
ASGSFKPFFSVEWYLS
ASRIDNIDWGGRKKLRNVEG
ASTRNVGYRVT
ATAVMVRILQRACTFLDAKS
ATCWTLGNDVRFGMRAFTFV
ATDCLCEQRPVFPNKVKWQS
ATLDTER
AVDLV
AVIDRNYVRTALAVMIASGH
AVPNIL
AVRWQSGSTRFLSCWLWQKN
AVTKLILFVVSGGMLRVLEF
AVVARGGVLVGTLCFLFWLS
AVYGVFRRRS
AVYLCI
AWLMRLMSYLGSSGWE
AWLNFCPSHVLLLFESYLNV
AWNFNLKLKELRKTMTS
AWSWLRANSRTQFWSRGLKP
AWVLCVKERFRSAGCECTGF
AYADGYNLFWDYK
AYETFGNCRLVASVIIDGIS
AYINTRYGFFGNLVDDTKSS
AYLFLLWSW
AYRLEPT
AYSSHFTCRPYGFNLWSLGS
AYVFVYESYAWGNLRQ
AYYKCWNNATDLVTNVPPIH
CAFLFL
CALCRYC
CASLCHSSGVCRD
CCGVLQRMKISQKVN
CCIMLTWKRCLNKRLVTTDP
CCKSCSTLFLNFSLFNDLLT
CCKTFYY
CCRLVRHFE
CDEGSGWILFIRHLLLYWRG
CDFTKSNDTCMDTASMSLLV
CDFTRESYTDNTAASIPMLM
CDNYVLPNYRYLSGFFKFGL
CDWPPAFYQC
CDYIKAKSVTDVCGNP
CEGRHKFF
CERKQVYNDRRINS
CFAIWVCKSVR
CFDLVCTLCFLFRLARVVEW
CFKRLVIIMGGLGAA
CFQQVHN
CFSELIYMLLNVDGNFSLRV
CFTRLVRRGNSQIKRAPGEP
CFVKGFTIETFWLKVVGIRG
CGDLVGTSKYSTLLEWRS
CGIYTFLRLRD
CGMLTGVIKNLDLTRRYKC
CGRRALSTELIVCLCSPFYV
CGTSHVMFWHVPRGVLKRMY
CHASVW
CHILKPWLGVRKPSPFCNYS
CIIFTRMATTGG
CIIRVYCFWFTDGDFYVLYR
CIREKLILIMTSRSIMLLKS
CKCVCNGAKDRFST
CKTVAYEYFTGLSLVLDFTR
CKVSAL
CKVTHSLI
CLALYRGRMLSGKVRRCTTS
CLEPNILVLIMEFVY
CLFRQTFCMGP

Amyloid nucleation score, 2.23 ± 0.082:
CFRAGVIFIWGVHNSYYRTS

Amyloid nucleation score, 1.34 ± 0.12:
ASSLHDPMRYVQTFRISWCC

Amyloid nucleation score, 0.961 ± 0.23:
ALLTFILVLIVEVVNWRKVC

Amyloid nucleation score, 1.23 ± 0.13:
CCNMYVSFTCWHRRRSFS

Amyloid nucleation score, 0.129 ± 0.88:
ASRHSQMWIS

Amyloid nucleation score, 0.663 ± 0.21:
ARCVVAFIILGNYR

Amyloid nucleation score, 1.54 ± 0.089:
CEIVFQYVFNFFSPTTSVVC

Amyloid nucleation score, 1.43 ± 0.069:
CFVAILNVIFGWSY

Amyloid nucleation score, -0.068 ± 0.75:
CEDGA

Amyloid nucleation score, 2.06 ± 0.094:
CDNWLSYMWFYGNGAAPEGR

Amyloid nucleation score, 0.487 ± 0.36:
ACLQRVQVKIHLGFTQTSFV
